Data as given in paper PMC3035450.

Molecular target: thrombin (UniProt P00734;P00734 328-363;364-622)
Assay: SPR

| Binder | Kd |
| --- | --- |
| GGTTGGTGTGGTTGG (structured_DNA, UNA-G at 10) [G10] | 222 ± 9.3 nM |
| GGTTGGTGTGGTTGG (structured_DNA, UNA-G at 5) [G5] | 425 ± 17.7 nM |
| GGTTGGTGTGGTTGG (structured_DNA) [TBA] | 103 ± 5.1 nM |
| GGTTGGTGTGGTTGG (structured_DNA, UNA-G at 8) [G8] | 913 ± 21.2 nM |
| GGTTGGTGTGGTTGG (structured_DNA, UNA-G at 1) [G1] | 95.4 ± 3.9 nM |
| GGTTGGTGTGGTTGG (structured_DNA, UNA-G at 2) [G2] | 298 ± 5.7 nM |
| GGTTGGTGTGGTTGG (structured_DNA, UNA-G at 6) [G6] | 287 ± 12.3 nM |
| GGTTGGTGTGGTTGG (structured_DNA, UNA-G at 15) [G15] | 155 ± 7.4 nM |
